Source: patent publication US7208311B2, “Catalytic domain of ADAM33 and methods of use thereof” (Schering Corporation, priority 2002, dated 2007)
Where a chain is given by its changes, count along the chain named. Numbers in names are those of the source.

Key:
ADAM33 [1] = target: T1, ADAM33 (Homo sapiens, UniProt Q9BZ11); assay: HPLC peptide substrate cleavage assay with ADAM33; assay type: biochemical; settings: for cleavage site of peptide: identified by MALDI-TOF MS; for cleavage of peptide by ADAM33: peptide 50 μM, ADAM33 0.1–0.5 μM, 2 h RT
T1 construct: made in house; host or cells: Drosophila melanogaster S2 cells
T1 sequence (Q9BZ11 204-409 limits assumed): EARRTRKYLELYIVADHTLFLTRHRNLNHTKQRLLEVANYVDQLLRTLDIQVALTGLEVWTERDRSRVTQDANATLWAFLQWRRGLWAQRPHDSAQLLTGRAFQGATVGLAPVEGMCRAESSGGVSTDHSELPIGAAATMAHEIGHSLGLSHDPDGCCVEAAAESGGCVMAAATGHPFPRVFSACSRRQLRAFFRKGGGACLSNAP
Method: (§1) The peptide substrate (50 μM) was incubated with or without ADAM33 (0.1–0.5 μM) in assay buffer (20 mM HEPES, pH 7.5, 0.5 M NaCl, 0.2 mg/ml bovine serum albumin (BSA)) for 2 hours (h) at room temperature (RT) in the presence or absence of various inhibitors [5 mM 1, 10-phenanthroline, or a protease inhibitor cocktail (2 μg/ml leupeptin, 0.4 μM benzamidine, 10 μg/ml soybean trypsin inhibitor and 0.5 mM iodoacetamide)]. The reaction was stopped by adding 10% trifluoroacetic acid (TFA) to a final concentration of 1% and samples were analyzed on Agilent HPLC model 1100 with C8 column. Solvents were: A, 0.1% TFA in water; B, 0.09% TFA in acetonitrile. A linear gradient from 2 to 42% B was run over 7 min at 1.5 ml/min and the eluate was monitored at 214 nm. The percentage of peptide cleavage was calculated using the peak area of the cleaved products divided by the sum of the peak areas of both the products and the remaining substrate. The cleavage sites of the peptide were identified by matrix-assisted laser-desorption/ionization time-of-flight (MALDI-TOF) mass spectrometry.
(§2) Specificity constants of peptide substrates, APP and KL-1, were obtained by using the HPLC assay described above. In brief, ADAM33cat (80 nM) was incubated with peptide substrate (30–2000 μM) in assay buffer for 10–60 min at RT. Reactions were timed to allow less than 15% turnover of the substrate. The initial cleavage velocities of the peptides were obtained by plotting cleaved product versus reaction time. The specificity constants, kcat/Km, were determined based on best fit of the data with the Michaelis-Menten equation when substrate concentration S<<Km.

ADAM33 [2] = target: T1, ADAM33; assay: MCF 12-mer peptide proteolysis assay (HPLC); assay type: biochemical; settings: for ADAM33 activity in the presence of inhibitor: 1 mM inhibitor
Method: A 12-mer peptide (i.e. Ac-LPPVAASSLNRD-NH2; SEQ ID NO: 48), derived from human mast-cell growth factor (accession number NP-038626) was synthesized as a substrate for ADAM33. Reactions were initiated by addition of 200 nM enzyme to appropriate amounts of substrate in assay buffer (25 mM HEPES, pH 7.5, 0.5 M NaCl, 0.1% n-octyl-β-D-glucoside), incubated at 22° C. for 2 h and subsequently quenched with 1% TFA. When inhibitors were evaluated, the enzyme and inhibitors were preincubated at 22° C. for 30 min prior to initiation of the assays. Substrate and products were separated by HPLC using a C-8 reverse phase column (Zobrax 3.5 μm, 4.6 mmD/5 cmL, Agilent, Palo Alto, Calif., 0.1% TFA acetonitrile/H2O). Elution was monitored at 214 nm, and peaks identified by mass spectroscopy. Initial rates of proteolysis were determined using reactions in which less than 10% of the substrate was consumed. kcat/Km values were calculated assuming the enzymes were 100% active.
Production of ADAM33 and mutants thereof were produced essentially as described in Example 1. Proteolytic assays and methods for determining catalytic rates are essentially as described in Examples 2 and 3.

ADAM33 [3] = target: T1, ADAM33; assay: HPLC inhibition assay, ADAM33cat with KL-1 peptide substrate; assay type: biochemical; settings: ADAM33cat 80 nM, KL-1 peptide 100 μM, 2 h RT
Method: The inhibition dissociation constants (Ki) for inhibitors were determined as follows: an HPLC assay was performed in the presence or absence of inhibitors for 2 h at RT using ADAM33cat (80 nM) and KL-1 peptide substrate (100 μM). For testing tissue inhibitor of metalloproteinases (TIMPs), ADAM33 and human TIMPs were pre-incubated for 1 h at RT. […] Initial velocities were calculated by dividing cleaved product over reaction time. The initial velocities were plotted as a function of inhibitor concentration. For tight binding inhibitors (IK682, TIMP-3), the apparent inhibitor dissociation constants (Ki app values) were calculated by fitting the curve to the following modified Morrison's equation: vi=vo{[(Eo−Io−Ki^app)^2+4 Ki^appEo]^1/2+(Eo−IoKI^app)}/2Eo where Ki^app=Ki(1+S/Km), vo is the uninhibited initial velocity, vi is the initial velocity in the presence of inhibitor at any given inhibitor concentration Io, and Eo is initial enzyme concentration. When the substrate concentration S<<Km, Ki^app is approximately equal to Ki.

[4] = substrate: CC(C)C[C@H](NC(=O)[C@H](CCCCN)NC(=O)[C@H](CCC(N)=O)NC(=O)[C@H](Cc1c[nH]cn1)NC(=O)[C@H](Cc1c[nH]cn1)NC(=O)[C@@H](NC(=O)[C@H](CCC(=O)O)NC(=O)[C@@H](N)Cc1ccc(O)cc1)C(C)C)C(=O)N[C@H](C(=O)N[C@@H](Cc1ccccc1)C(=O)O)C(C)C; assay: HPLC peptide substrate cleavage assay with ADAM33; assay type: biochemical, human; settings: other: ADAM33cat 80 nM, turnover <15%; pH 7.5
Method: as §1, §2

[5] = substrate: CC(C)C[C@H](NC(=O)[C@H](CO)NC(=O)[C@H](CO)NC(=O)[C@H](C)NC(=O)[C@H](C)NC(=O)[C@@H](NC(=O)[C@@H]1CCCN1C(=O)[C@@H]1CCCN1)C(C)C)C(=O)N[C@@H](CCCNC(=N)N)C(=O)N[C@@H](CC(N)=O)C(=O)O; assay: HPLC peptide substrate cleavage assay with ADAM33; assay type: biochemical, human; settings: other: ADAM33cat 80 nM, turnover <15%; pH 7.5
Method: as §1, §2

[6] = Thermal denaturation monitored by circular dichroism (220 nm); assay type: physicochemical
Method: The effect of CaCl2 on the stability of the ADAM33 N231Q catalytic domain as determined by thermal denaturation: The effect of the concentration of CaCl2 on the retention of the secondary structure of the ADAM33 N231 Q catalytic domain was monitored by circular dichroism (λ220 nm) as a function of temperature. A parallel study was performed replacing the CaCl2 with NaCl to control for the effect of the corresponding increase in ionic strength. The ADAM33 N231Q catalytic domain was purified as described above and then diluted to 0.2 mg/ml. The sample was then dialyzed against 25 mM Hepes, pH 7.5, 5% glycerol overnight. The temperature dependent protein denaturation was performed using a JASCO 810 spectropolarimeter under the following conditions: • Protein concentration: 0.2 mg/ml (based on a BioRad Protein Assay) • Cell length: 0.1 cm • Monitor wavelength: 220 nm • Temperature slope: 2° C./min • Measurement range: 20–80° C.

In the case of “insulin B chain: peptide substrate HLVEALYLVC; SEQ ID NO: 45 (insulin B chain peptide)”, the “cleavage site of peptide” value (ADAM33 [1]) is reported as “A*L” and the “cleavage of peptide by ADAM33” value (ADAM33 [1]) is reported as “cleaved”.

For `O=C(O)CN(CCN(CC(=O)O)CC(=O)O)CC(=O)O` [EDTA], the “ADAM33 activity in the presence of inhibitor” value (ADAM33 [2]) was “completely abolished”.

With “Ac-LPPVAASSLNRD-NH2 [MCF substrate peptide]” the “cleavage site of MCF peptide by wild-type ADAM33” value (ADAM33 [2]) was “between the residues corresponding to Ala-190 and Ser-191” and the Km (ADAM33 [2]; 200 nM enzyme, 10–500 μM substrate, room temperature) was greater than 500 µM.

In the case of “TRANCE: peptide substrate VGSQHIRAEK; SEQ ID NO: 44 (TRANCE Peptide)”, the “cleavage site of peptide” value (ADAM33 [1]) is reported as “H*I” and the “cleavage of peptide by ADAM33” value (ADAM33 [1]) is reported as “cleaved”.

With `CNC(=O)[C@@H](NC(=O)[C@H](CC(C)C)[C@H](O)C(=O)NO)C(C)(C)C` [Marimastat, N4-[2,2-dimethyl-1(S)-[(methylamino)carbonyl]propyl]-N1,2(S)-dihydroxy-3(R)-(2-methylpropyl) butanediamide] the Ki (ADAM33 [3]) was 157 ± 38 nM.

In the case of `c1cnc2c(c1)ccc1cccnc12` [1,10-phenanthroline], the “ADAM33 activity in the presence of inhibitor” value (ADAM33 [2]) is reported as “completely abolished”.

In the case of `CC(C)CC(CC(=O)NO)C(=O)N[C@H](C(=O)N[C@@H](C)C(=O)NCCN)C(C)(C)C` (mixture of isomers) [Immunex compound 1, N-{DL-[2-(hydroxyamino-carbonyl)methyl]4-methylpentanoyl}-L-3-(tertbutyl)glycyl-L-alanine,2-aminoethylamide], the Ki (ADAM33 [3]) is reported as 2850 ± 152 nM.

B1: ADAM33 (Homo sapiens) (protein)
chain: T1 sequence (Q9BZ11 204-409 limits assumed)
notes: made in house; host or cells: Drosophila melanogaster S2 cells
For B1, the Km [4] was 1000 ± 100 µM, the kcat [4] was 0.2 ± 0.1 s⁻¹ and the kcat/Km [4] was “(1.6±0.3)×10^2 M^−1 s^−1”. The Km [5] was 3000 ± 100 µM, the kcat [5] was 0.7 ± 0.1 s⁻¹ and the kcat/Km [5] was “(2.6±0.5)×10^2 M^−1 s^−1”.

B2: CAT domain: purified catalytic (protease) domain of human ADAM33 (protein)
chain: EARRTRKYLELYIVADHTLFLTRHRNLNHTKQRLLEVANYVDQLLRTLDIQVALTGLEVWTERDRSRVTQDANATLWAFLQWRRGLWAQRPHDSAQLLTGRAFQGATVGLAPVEGMCRAESSGGVSTDHSELPIGAAATMAHEIGHSLGLSHDPDGCCVEAAAESGGCVMAAATGHPFPRVFSACSRRQLRAFFRKGGGACLSNAPSGHHHHHH
With B2 the catalytic efficiency (ADAM33 [2]; MCF peptide substrate, estimated) was 2.6±0.5)×10^2 M^−1 s^−1.

B3: ADAM33 N231Q: modified ADAM33 catalytic domain N231Q, SEQ ID NO: 8 with C-terminal Ser-Gly His6 Tag (protein)
chain: T1 sequence (Q9BZ11 204-409 limits assumed) with N28Q
modifications: C-terminal Ser-Gly His6 tag; homo sapiens
For B3, the “Denaturation Temp.” value ([6]; CaCl2 0 mM) was 43.5 °C, the “ΔDenaturation Temp.” value ([6]; CaCl2 0 mM) was 0.0 °C and the “Denaturation Temp.” value ([6]; CaCl2 0.003 mM) was 50.6 °C. For the same molecule, the “ΔDenaturation Temp.” value ([6]; CaCl2 0.003 mM) was 7.1 °C, the “Denaturation Temp.” value ([6]; CaCl2 0.03 mM) was 52.9 °C and the “ΔDenaturation Temp.” value ([6]; CaCl2 0.03 mM) was 9.4 °C. The “Denaturation Temp.” value ([6]; CaCl2 0.3 mM) was 53.9 °C, the “ΔDenaturation Temp.” value ([6]; CaCl2 0.3 mM) was 10.4 °C and the “Denaturation Temp.” value ([6]; CaCl2 0.5 mM) was 56.9 °C. The “ΔDenaturation Temp.” value ([6]; CaCl2 0.5 mM) was 13.4 °C, the “Denaturation Temp.” value ([6]; CaCl2 1.0 mM) was 57.9 °C and the “ΔDenaturation Temp.” value ([6]; CaCl2 1.0 mM) was 14.4 °C. For the same molecule, the “Denaturation Temp.” value ([6]; CaCl2 2.5 mM) was 60.6 °C, the “ΔDenaturation Temp.” value ([6]; CaCl2 2.5 mM) was 17.1 °C and the “Denaturation Temp.” value ([6]; CaCl2 5.0 mM) was 61.5 °C. For the same molecule, the “ΔDenaturation Temp.” value ([6]; CaCl2 5.0 mM) was 18.0 °C, the “Denaturation Temp.” value ([6]; CaCl2 10.0 mM) was 63.3 °C and the “ΔDenaturation Temp.” value ([6]; CaCl2 10.0 mM) was 19.8 °C. For the same molecule, the “Denaturation Temp.” value ([6]; CaCl2 25.0 mM) was 64.6 °C, the “ΔDenaturation Temp.” value ([6]; CaCl2 25.0 mM) was 21.1 °C and the “Denaturation Temp.” value ([6]; CaCl2 50.0 mM) was 65.6 °C. For the same molecule, the “ΔDenaturation Temp.” value ([6]; CaCl2 50.0 mM) was 22.1 °C, the “Denaturation Temp.” value ([6]; CaCl2 100.0 mM) was 65.2 °C and the “ΔDenaturation Temp.” value ([6]; CaCl2 100.0 mM) was 21.7 °C.
